Measurements reported in patent US20130330414A1.

Target: 8.3-TCR on 8.3-CD8+ T-cells of 8.3-TCR-transgenic NOD mice
Assay: cell-based or functional assay

Chain of IGRP206-214/K^d pMHC complex (P01902 22-305, one chain of several): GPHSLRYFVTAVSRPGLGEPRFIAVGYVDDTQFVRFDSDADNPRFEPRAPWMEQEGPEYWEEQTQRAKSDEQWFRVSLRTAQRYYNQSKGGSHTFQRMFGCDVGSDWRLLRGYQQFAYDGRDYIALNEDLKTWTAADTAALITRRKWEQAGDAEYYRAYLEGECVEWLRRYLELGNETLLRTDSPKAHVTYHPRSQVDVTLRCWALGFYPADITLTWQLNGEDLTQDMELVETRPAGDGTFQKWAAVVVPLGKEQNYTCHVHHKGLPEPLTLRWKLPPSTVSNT

Work on “IGRP206-214/K^d pMHC complex (from UniProt Q9Z186 206-214; P01902 22-305) (peptide-MHC)” yielded an IFNγ responses (ng/mL); NP IGRP-SFP-011411, Fe3O4 8 nm, pMHC valency 54, 5 × 10^11 NPs/mL of 2.3 ng/mL, an IFNγ responses (ng/mL); NP IGRP-SFP-012011, Fe3O4 8 nm, pMHC valency 14, 5 × 10^11 NPs/mL of 0.2 ng/mL and an IFNγ responses (ng/mL); NP IGRP-SFP-031511, Fe3O4 8 nm, pMHC valency 15, 5 × 10^11 NPs/mL of 0.15 ng/mL. The IFNγ responses (ng/mL); NP IGRP-SFP-051211, Fe3O4 8 nm, pMHC valency 31, 5 × 10^11 NPs/mL was 0.7 ng/mL, the IFNγ responses (ng/mL); NP IGRP-SFP-100711, Fe3O4 8 nm, pMHC valency 39, 5 × 10^11 NPs/mL was 0.9 ng/mL and the IFNγ responses (ng/mL); NP IGRP-SFP-102912, Fe3O4 8 nm, pMHC valency 11, 5 × 10^11 NPs/mL was 0.4 ng/mL. For the same substance, the IFNγ responses (ng/mL); NP IGRP-SFPM-110512, Fe3O4 8 nm, pMHC valency 8, 5 × 10^11 NPs/mL was 0.03 ng/mL.
